The values below come from US7410639 (VEGENICS, dated 2008).

The assay deals with T1, VEGFR2-EpoR chimeric receptor (mouse VEGFR2 extracellular domain with mouse EpoR transmembrane and … (mouse, UniProt P35918 20-762; P14753 250-507, limits assumed).
T1 construct: extracellular domain;domain: transmembrane and cytoplasmic domains; Expressed on the surface of Ba/F3 cells (line Ba/F3-NYK-EpoR); also called VEGF receptor-2; Flk-1
Description: Ba/F3 VEGFR2-EpoR bioassay (binding inferred from proliferation). As for the experimental part: Recombinant VEGFDΔNΔC, and material purified by M2 affinity chromatography, was assessed using the VEGFR2 bioassay. Bioassay cells (10^4), washed to remove IL-3, were incubated with aliquots of conditioned medium from VEGF-D transfected COS cells, fraction #1 from the affinity column (void volume), or fraction #3 from the affinity column (containing VEGFDΔNΔC). All samples were tested at an initial concentration of 20% (i.e., ⅕) followed by doubling dilutions. Cells were allowed to incubate for 48 hours at 37° C. in a humidified atmosphere of 10% CO_2. Cell proliferation was quantitated by the addition of 1 μCi of ^3H-thymidine and counting the amount incorporated over a period of 4 hours.
The bioassay for the capacity of polypeptides to bind to VEGF receptor-2 is described in detail in Example 7. Aliquots of fractions eluted from the M2 affinity column, containing the VEGFDΔNΔC protein, were diluted in medium and tested in the VEGFR2 bioassay as previously described.

T1 sequence (P35918 other isoform, or with tags, fused parts or gaps mutant limits assumed): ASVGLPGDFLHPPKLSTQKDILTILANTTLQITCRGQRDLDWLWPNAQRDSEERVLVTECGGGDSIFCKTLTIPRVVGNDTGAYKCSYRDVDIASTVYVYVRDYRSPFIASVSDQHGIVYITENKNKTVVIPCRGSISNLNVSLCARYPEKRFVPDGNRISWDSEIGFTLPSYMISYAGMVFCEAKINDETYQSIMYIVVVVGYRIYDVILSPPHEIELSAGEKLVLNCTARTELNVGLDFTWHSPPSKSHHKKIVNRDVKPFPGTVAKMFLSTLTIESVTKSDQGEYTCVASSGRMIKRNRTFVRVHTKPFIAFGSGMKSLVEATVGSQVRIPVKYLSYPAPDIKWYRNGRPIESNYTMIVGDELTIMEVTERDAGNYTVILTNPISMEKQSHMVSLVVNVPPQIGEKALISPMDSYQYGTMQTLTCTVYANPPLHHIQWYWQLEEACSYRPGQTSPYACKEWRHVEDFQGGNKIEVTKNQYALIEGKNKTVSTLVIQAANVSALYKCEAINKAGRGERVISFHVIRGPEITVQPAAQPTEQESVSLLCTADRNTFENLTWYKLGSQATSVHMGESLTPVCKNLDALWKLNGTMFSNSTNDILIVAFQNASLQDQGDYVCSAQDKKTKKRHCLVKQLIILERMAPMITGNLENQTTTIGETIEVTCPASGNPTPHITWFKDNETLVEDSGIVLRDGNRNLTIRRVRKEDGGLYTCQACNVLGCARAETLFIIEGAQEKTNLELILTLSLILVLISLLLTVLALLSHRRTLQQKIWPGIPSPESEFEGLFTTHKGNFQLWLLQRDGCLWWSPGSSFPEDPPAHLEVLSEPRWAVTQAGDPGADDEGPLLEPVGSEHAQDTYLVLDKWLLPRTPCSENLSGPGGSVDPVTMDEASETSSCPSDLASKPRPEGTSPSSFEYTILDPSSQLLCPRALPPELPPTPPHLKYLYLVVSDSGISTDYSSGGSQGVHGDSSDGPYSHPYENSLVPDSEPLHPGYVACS

B1: VEGFDΔNΔC (ligand)
chain: FYDIETLKVIDEEWQRTQCSPRETCVEVASELGKSTNTFFKPPCVNVFRCGGCCNEESLICMNTSTSYISKQLFEISVPLTSVPELVPVKVANHTGCKCLPTAPRHPYS
notes: also called internal VEGF-D polypeptide; fraction #3; not shown: FLAG octapeptide at the N-terminus
Regarding B1, the binding result is recorded as “binds”.
